Measurements published in US20090221476A1.

Target: tubulin purified on a phosphocellulose column (mouse)
Assay: cell-based or functional assay

Sequence of tubulin purified on a phosphocellulose column (mouse) (P68369 whole entry, chain 1 of 2): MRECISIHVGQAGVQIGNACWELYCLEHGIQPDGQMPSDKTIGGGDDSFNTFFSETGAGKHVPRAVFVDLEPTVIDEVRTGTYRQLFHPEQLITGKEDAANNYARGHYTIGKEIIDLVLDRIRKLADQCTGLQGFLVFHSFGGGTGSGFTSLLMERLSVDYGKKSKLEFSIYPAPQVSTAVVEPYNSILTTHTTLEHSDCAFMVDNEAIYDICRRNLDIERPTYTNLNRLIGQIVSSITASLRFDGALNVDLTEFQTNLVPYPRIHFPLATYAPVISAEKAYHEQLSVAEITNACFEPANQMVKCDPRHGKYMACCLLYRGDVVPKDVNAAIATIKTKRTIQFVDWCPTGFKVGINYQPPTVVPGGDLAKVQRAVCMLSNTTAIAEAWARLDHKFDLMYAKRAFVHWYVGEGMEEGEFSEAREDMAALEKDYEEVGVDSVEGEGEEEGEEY
Sequence of tubulin purified on a phosphocellulose column (mouse) (Q9ERD7 whole entry, chain 2 of 2, further chain): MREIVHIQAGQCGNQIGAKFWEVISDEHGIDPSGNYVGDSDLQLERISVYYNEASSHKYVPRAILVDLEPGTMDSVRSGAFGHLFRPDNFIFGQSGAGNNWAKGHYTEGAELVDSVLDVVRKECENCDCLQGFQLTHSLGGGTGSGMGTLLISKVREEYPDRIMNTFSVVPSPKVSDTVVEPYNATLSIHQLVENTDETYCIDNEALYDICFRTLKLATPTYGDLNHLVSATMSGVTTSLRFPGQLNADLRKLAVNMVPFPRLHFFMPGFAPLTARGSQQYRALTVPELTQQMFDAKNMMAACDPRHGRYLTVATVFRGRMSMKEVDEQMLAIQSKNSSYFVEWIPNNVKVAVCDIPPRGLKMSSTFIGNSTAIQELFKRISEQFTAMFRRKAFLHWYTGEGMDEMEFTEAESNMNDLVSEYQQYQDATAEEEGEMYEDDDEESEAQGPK

“Neurofilament high subunit-Tubulin Binding Site (NFH-TBS) (peptide)” showed an inhibition of tubulin polymerization (% inhibition at 100 µM) of 30.
“Neurofilament Light subunit-Tubulin Binding Site 2 (NFL-TBS2) (peptide)” showed a T98G cells in phase G1 after 48 hours with 10 µM peptide (FACS; 39% in untreated cultures) (% of cells in G1) of 61 and an inhibition of tubulin polymerization (% inhibition at 100 µM) of 100.
For “Neurofilament Light subunit-Tubulin Binding Site 1 (NFL-TBS1) (peptide)”, the inhibition of tubulin polymerization (% inhibition at 100 µM) was 30.
For “Neurofilament Medium subunit-Tubulin Binding Site (NFM-TBS) (peptide)”, the inhibition of tubulin polymerization (% inhibition at 100 µM) was 30.
